Results as given in article PMC5677532 (Structure (London, England : 1993), 2017).
Where “and” joins values, the source holds several entries; their conditions need not be identical. Equal values may be shown once.

Columns and labels:
[1] = target: the molecule itself; assay: SEC
[2] = target: the molecule itself; assay: SEC; remark: listed apart in the source
[3] = target: the molecule itself; assay: SEC; remark: listed apart in the source
[4] = target: the molecule itself; assay: native MS
[5] = target: the molecule itself; assay: native MS; remark: listed apart in the source
[6] = target: the molecule itself; assay: SEC; remark: listed apart in the source

B1: Bsc4 S288C, C-terminally hexahistidine-tagged (natural protein, S. cerevisiae (strain S288C), UniProt P53841 2-131, looked up)
chain: SIVLRKSNKKNKNCITSKFYTIHIIKISTPVFRAPIAIGESPYVEWSCLQVVFRKDMVTKKTTFAQLITRLNHFLCQALKRRDSKTYILCRTAVFGAMTPFSPRKSHINNKLPMQPRKKKIVIIYVVRFH
For B1, the “stoichiometry N” value [1] was 2 and the “stoichiometry N” value [2] was ≥ 2.

B2: Bsc4 EC1118, C-terminally hexahistidine-tagged (natural protein, S. cerevisiae (strain EC1118), UniProt P53841 2-121, looked up)
chain: SIVLRKSNKKNKNCITSKFYTIHIIKISTPVFRAPIAIGESPYVEWSCLQVVFRKDMVTKKTTFAQLITRLNHFLCQALKRRDSKTYILCRTAVFGAMTPFSPRKSHINNKLPMQPRKKK
For B2, the “stoichiometry N” value [3] was 4, the “stoichiometry N” value [4] was 2 and 6 and the “stoichiometry N” value [5] was 7 and 8. The “stoichiometry N” value [2] was ≥ 2.

B3: Bsc4 S288C, N-terminally hexahistidine-tagged (natural protein, S. cerevisiae (strain S288C), UniProt P53841 1-131, looked up)
chain: MSIVLRKSNKKNKNCITSKFYTIHIIKISTPVFRAPIAIGESPYVEWSCLQVVFRKDMVTKKTTFAQLITRLNHFLCQALKRRDSKTYILCRTAVFGAMTPFSPRKSHINNKLPMQPRKKKIVIIYVVRFH
B3: binds [6].
